Measured values reported in patent US20250179183A1.
Like-named read-outs stand apart in the source and are kept apart here.

Legend:
[1] = molecular target: cynomolgus monkey CD32b (cynomolgus monkey)
[2] = molecular target: cynomolgus monkey CD32a (cynomolgus monkey)
[3] = molecular target: cynomolgus monkey CD32a (cynomolgus monkey); remark: listed apart in the source

Rituximab (antibody)
Kd [1]: 1.46 µM | Kd [2]: 3.13 µM | Kd [3]: 5.94 µM
